Reference: patent US20150166621A1 (Hoffmann-La Roche, published 2015)
Square brackets hold non-standard residues; d marks the D form. Nle = CCCC[C@H](N)C(=O)O; Mamp = not defined here; Nva = CCC[C@H](N)C(=O)O

B1: peptide of SEQ ID NO: 70 (peptide)
peptide: Ac-YDREFLLDFQF[Nle]-NH2
SMILES: CCCC[C@H](NC(=O)[C@H](Cc1ccccc1)NC(=O)[C@H](CCC(N)=O)NC(=O)[C@H](Cc1ccccc1)NC(=O)[C@H](CC(=O)O)NC(=O)[C@H](CC(C)C)NC(=O)[C@H](CC(C)C)NC(=O)[C@H](Cc1ccccc1)NC(=O)[C@H](CCC(=O)O)NC(=O)[C@H](CCCNC(=N)N)NC(=O)[C@H](CC(=O)O)NC(=O)[C@H](Cc1ccc(O)cc1)NC(C)=O)C(N)=O
B2: peptide of SEQ ID NO: 74 (peptide)
peptide: Ac-YNREFLLDFQF[Nle]-NH2
SMILES: CCCC[C@H](NC(=O)[C@H](Cc1ccccc1)NC(=O)[C@H](CCC(N)=O)NC(=O)[C@H](Cc1ccccc1)NC(=O)[C@H](CC(=O)O)NC(=O)[C@H](CC(C)C)NC(=O)[C@H](CC(C)C)NC(=O)[C@H](Cc1ccccc1)NC(=O)[C@H](CCC(=O)O)NC(=O)[C@H](CCCNC(=N)N)NC(=O)[C@H](CC(N)=O)NC(=O)[C@H](Cc1ccc(O)cc1)NC(C)=O)C(N)=O
B3: peptide of SEQ ID NO: 85 (peptide)
peptide: Ac-KRKRFDREFLLAFQF[Nle]-NH2
SMILES: CCCC[C@H](NC(=O)[C@H](Cc1ccccc1)NC(=O)[C@H](CCC(N)=O)NC(=O)[C@H](Cc1ccccc1)NC(=O)[C@H](C)NC(=O)[C@H](CC(C)C)NC(=O)[C@H](CC(C)C)NC(=O)[C@H](Cc1ccccc1)NC(=O)[C@H](CCC(=O)O)NC(=O)[C@H](CCCNC(=N)N)NC(=O)[C@H](CC(=O)O)NC(=O)[C@H](Cc1ccccc1)NC(=O)[C@H](CCCNC(=N)N)NC(=O)[C@H](CCCCN)NC(=O)[C@H](CCCNC(=N)N)NC(=O)[C@H](CCCCN)NC(C)=O)C(N)=O
B4: peptide of SEQ ID NO: 80 (peptide)
peptide: Ac-KRYDREFLLAFQF[Nle]-NH2
SMILES: CCCC[C@H](NC(=O)[C@H](Cc1ccccc1)NC(=O)[C@H](CCC(N)=O)NC(=O)[C@H](Cc1ccccc1)NC(=O)[C@H](C)NC(=O)[C@H](CC(C)C)NC(=O)[C@H](CC(C)C)NC(=O)[C@H](Cc1ccccc1)NC(=O)[C@H](CCC(=O)O)NC(=O)[C@H](CCCNC(=N)N)NC(=O)[C@H](CC(=O)O)NC(=O)[C@H](Cc1ccc(O)cc1)NC(=O)[C@H](CCCNC(=N)N)NC(=O)[C@H](CCCCN)NC(C)=O)C(N)=O
B5: peptide of SEQ ID NO: 84 (peptide)
peptide: Ac-KRFDREFLLAFQF[Nle]-NH2
SMILES: CCCC[C@H](NC(=O)[C@H](Cc1ccccc1)NC(=O)[C@H](CCC(N)=O)NC(=O)[C@H](Cc1ccccc1)NC(=O)[C@H](C)NC(=O)[C@H](CC(C)C)NC(=O)[C@H](CC(C)C)NC(=O)[C@H](Cc1ccccc1)NC(=O)[C@H](CCC(=O)O)NC(=O)[C@H](CCCNC(=N)N)NC(=O)[C@H](CC(=O)O)NC(=O)[C@H](Cc1ccccc1)NC(=O)[C@H](CCCNC(=N)N)NC(=O)[C@H](CCCCN)NC(C)=O)C(N)=O
B6: peptide of SEQ ID NO: 78 (peptide)
peptide: Ac-Y[Nva]LLAFQF[Nle]-NH2
SMILES: CCCC[C@H](NC(=O)[C@H](Cc1ccccc1)NC(=O)[C@H](CCC(N)=O)NC(=O)[C@H](Cc1ccccc1)NC(=O)[C@H](C)NC(=O)[C@H](CC(C)C)NC(=O)[C@H](CC(C)C)NC(=O)[C@H](CCC)NC(=O)[C@H](Cc1ccc(O)cc1)NC(C)=O)C(N)=O

Each binder was assayed against T1, Human eIF4E (aa 28-217) with a C-terminal His tag (human, UniProt P06730 28-217) (assay: TR-FRET competition vs biotin-4G2 peptide on HH-eIF4E;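 also: peptide inhibitors measured in sodium phosphate buffer at pH 6.5 containing KCl, DTT, NP40 and gammaglobulin, with a 20 min incubation at room temperature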).
T1 construct: also called HH-eIF4E; eukaryotic initiation factor 4E
T1 sequence (P06730 other isoform, or with tags, fused parts or gaps limits assumed): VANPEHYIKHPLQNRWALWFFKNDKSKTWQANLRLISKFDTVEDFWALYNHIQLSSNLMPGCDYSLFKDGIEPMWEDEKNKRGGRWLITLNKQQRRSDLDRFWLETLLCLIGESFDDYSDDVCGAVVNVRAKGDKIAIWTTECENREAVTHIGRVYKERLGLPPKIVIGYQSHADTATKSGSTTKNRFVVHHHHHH
Protocol: Test peptides (1.6 mM stock in DMSO) were diluted 3 fold in series in DMSO and solutions were diluted 4 fold in Assay Buffer (50 mM NaPi, pH 6.5, 50 mM KCl, 1 mM DTT, 0.004% NP40 and 0.5 mg/ml gammaglobulin). […] The samples were incubated at room temperature for 20 minutes.
IC50 values were calculated using Condoseo software (Genedata AG, Basel, Switzerland).
Ac-KQYDREFLLDFQFM-NH2 [peptide of SEQ ID NO: 54] showed an IC50 of 8.84 µM. Ac-YDREFLLDFQFMPA-NH2 [peptide of SEQ ID NO: 82] showed an IC50 of 7.52 µM. Binder Ac-KQYDREFLLDFQF-NH2 [peptide of SEQ ID NO: 55] has an IC50 of 14.6 µM. Ac-QYDREFLLDFQFMPA-NH2 [peptide of SEQ ID NO: 81] was tested, and the IC50 was 8.68 µM. Ac-Y[Mamp]LLAFQF[Nle]-NH2 (reading uncertain) [peptide of SEQ ID NO: 77] showed an IC50 of 5.35 µM. For Ac-YDREFLLDFQF-NH2 [peptide of SEQ ID NO: 69], the IC50 was 12.4 µM. Ac-KQYDREFLLDFQF[dM]PA-NH2 [peptide of SEQ ID NO: 66] was tested, and the IC50 was 7.75 µM. B1 gave an IC50 of 3.39 µM. Ac-YDREFLLDFQFM-NH2 [peptide of SEQ ID NO: 68] was tested, and the IC50 was 13.1 µM. B2 gave an IC50 of 10.9 µM. YNRQFLLDFQFL (N-terminal Ac; Nle at 12; C-terminal NH2) [peptide of SEQ ID NO: 75] gave an IC50 of 11 µM. With YDRQFLLDFQFL (N-terminal Ac; Nle at 12; C-terminal NH2) [peptide of SEQ ID NO: 71] the IC50 was 11 µM. With Ac-Y[Mamb]LLAFQF[Nle]-NH2 [peptide of SEQ ID NO: 76] the IC50 was 12 µM. With Ac-F[5Ava]LLAFQF[Nle]-NH2 [peptide of SEQ ID NO: 79] the IC50 was 9.34 µM. Ac-KQYDREFLLDFQFMPA-NH2 [peptide of SEQ ID NO: 52] gave an IC50 of 10.5 µM. Work on Ac-AQYDREFLLDFQFMPA-NH2 [peptide of SEQ ID NO: 63] yielded an IC50 of 12.3 µM. Binder Ac-KQYDREFLLAFQFMPA-NH2 [peptide of SEQ ID NO: 59] has an IC50 of 1.42 µM. With Ac-KQYDREFLLDFQFMAA-NH2 [peptide of SEQ ID NO: 57] the IC50 was 6.96 µM. Ac-KQYDREFLLDFQFAPA-NH2 [peptide of SEQ ID NO: 58] was tested, and the IC50 was 11.3 µM. In the case of Ac-KQYAREFLLDFQFMPA-NH2 [peptide of SEQ ID NO: 61], the IC50 is reported as 11.8 µM. For Ac-KQYDRAFLLDFQFMPA-NH2 [peptide of SEQ ID NO: 60], the IC50 was 9.26 µM. For Ac-KAYDREFLLDFQFMPA-NH2 [peptide of SEQ ID NO: 62], the IC50 was 13.6 µM. Work on Ac-KQYDREFLLDFQFMP[dA]-NH2 [peptide of SEQ ID NO: 64] yielded an IC50 of 8.69 µM. For Ac-[dK]QYDREFLLDFQFMPA-NH2 [peptide of SEQ ID NO: 83], the IC50 was 1.67 µM. In the case of Ac-KQYDREFLLDFQFMP-NH2 [peptide of SEQ ID NO: 53], the IC50 is reported as 7.46 µM. In the case of Ac-KQYDREFLLDF-NH2 [peptide of SEQ ID NO: 56], the IC50 is reported as 3.44 µM. Work on Ac-KQYDREFLLDFQ[dF]MPA-NH2 [peptide of SEQ ID NO: 67] yielded an IC50 of 13.7 µM. Ac-KQYDREFLLDFQFM[dP]A-NH2 [peptide of SEQ ID NO: 65] showed an IC50 of 7.69 µM. B3 showed an IC50 of 0.32 µM. In the case of B4, the IC50 is reported as 0.643 µM. In the case of B5, the IC50 is reported as 4.07 µM. B6 showed an IC50 of 6.63 µM.
